Reference: the supplement of paper PMC9170038

Test system: K4 kissing-loop RNA reporter
Assay: apparent KD of K4 kissing-loop reporter; higher = weaker reporter binding
Details: Eterna round: R107
Protocol: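 RNA-MaP round R107: designed RNA switches with theophylline, tryptophan, arginine or FMN aptamers are transcribed on-chip within common flanks. They are titrated with a labelled K4 kissing-loop RNA reporter in RNA-MaP buffer (100 mM Tris pH 7.5, 80 mM KCl, 4 mM MgCl2), without ligand or with the indicated ligand. Median apparent KD per design.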

[1] = input ligand: theophylline 20 uM
[2] = input ligand: tryptophan 2.4 mM
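Further: bound reporter read as fluorescence of individual clusters on recovered sequencing chips by microscopy, with normalized cluster intensities fitted with a binding model.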

Row | Sequence | apparent KD of K4 kissing-loop reporter (input ligand: FMN 200 uM) [nM] | apparent KD of K4 kissing-loop reporter (input ligand: arginine 13.2 mM) [nM] | apparent KD of K4 kissing-loop reporter (input ligand: none) [nM] | apparent KD of K4 kissing-loop reporter [1] [nM] | apparent KD of K4 kissing-loop reporter [2] [nM]
1 | GUACCUUGGAAACAAGGACCGCUAACCGAAGGAGCGCGUGAAAACGCAGGUAGGUCGCGGUAGCGGAGUGAUGUUCCGCGAGAGG [Excluson Arginine A GF 14] | 166 | 235 | 196 | 268 | 165
2 | CGCAGUGAUGUUGCGAGCAGCUACAGGGAAGGAGCGCUUUAGUAAGCAGGUAGGUCGCCCACGCAGUGAUGUUGCGUCAUAGGGU [Exclusion Arginine A GF 20] | 158 | 123 | 117 | 100 | 111
3 | AGCAGGAGUGAUGUUCCUGUGGCAUAAGUUCGAGGACCGGUACGGCCGCCACUCGUAACAUUAAUCCGUCCUUGAUCAGAUAAGA [theeternabot_sameState_KL_Trp_A_12] | 195 | 186 | 216 | 243 | 101
4 | UUAUUAUUCAGUGAUGUUGAAUUUAUUUCAGAGGAUAUGCAUAAAUGCAGAAGGCUGUAAUACUAUACUUUAAUAAAUUAAAUUU [JR_SSFMNA_Sub018] | 242 | 250 | 248 | 262 | 203
5 | AGGAUCACGUCAGUGAUGUUGACAAGAGAUACCAGAGACGAAAGUCUCCCUUGGCAGCUCACUGUGAUCCGUGACAAAGGUCACA [Omei KL hio A SS C v1] | 146 | 63.2 | 98.3 | 154 | 76
6 | AGUGUGCAAAAGCACACUCAGAACAAGGACAAGGAUAUCUACUAAUAGAGAAGGUGUCCUUUCCUUAGUGAUGUUAAGGAUCUGA [Omei KL FMN A SS D v4] | 270 | 424 | 596 | 486 | 564
7 | AAUAAUAAUAAAUAUAGAUUGAUGAGGAAACGAGGACCGGUACGGCCGCCACUCGAGUGAUGUUCGAGAACCUCAUCAAUCAUAA [AK4.7 Exc Tryptophan A] | 171 | 132 | 166 | 154 | 382
8 | UAAGAAUAAGUAGCAGUGAUGUUGCUACUGCGAGGACCGGUACGGCCGCCACUCGAGUCCUCGAAGCGUCACUGAACGAGGAAUA [whbob_SS_Tryp_A_m13] | 319 | 283 | 328 | 433 | 187
9 | GCGAAGAAGGUUGAUACCAGUCUUGCGUGUCAAGCGCCAGUGAUGUUGGGCCUGUAGAUCGACCCUUGGCAGCAACCUCGAAAUG [theeternabot_sameState_KL_Theo_B_28] | 836 | 563 | 844 | 748 | 655
10 | CAUUCGAAAUGCAGUGAUGUUGCAACUGAUACCAGUAUCGAAAGAUACCCUUGGCAGCGGAAAACCGCUACGUUUUUUUUGAAUG [Ex Theophylline A K4 24] | 191 | 312 | 312 | 357 | 176
11 | AGACUACCACACUGUCAAUAGACAGUGUACUAGGAUAUGCUGAUAAGCAGAAGGAGUGAUGUUCCAAGGUAGUCAAUAAAAUAAU [FmnAX 13 U28+A66] | 393 | 213 | 206 | 291 | 206
12 | AACUCUCAGGCACCUGAGUGAUGUUCAGGCCGAGGACCGGUACGGCCGCCACUCGGGCCUGAGAGAGGUUAUCAAAGAUAGCCAA [Omei KL Tryp A SS A v2] | 561 | 366 | 528 | 277 | 449
13 | CGCAGUGAUGUUGCUAUUGUUCUUGGUUAACGAGGACCGGUACGGCCGCCACUCGAUGUCUGUCUAGUCCAGUGUUUUUUUGAGU [whbob_EX_Tryp_A_t9] | 513 | 493 | 592 | 571 | 310
14 | UUUACUCCGAGUGAUGUUCGGCGUAUCUGACGAGGACCGGUACGGCCGCCACUCGGUUCGACUACGAAGGCCUUGGCCACAGAUU | 268 | 174 | 257 | 284 | 285
15 | GCCUUUGUACAGUCCGUUUGUCAUGUGGAUACCAGCAGGAUAGCUUGCCCUUGGCAGCCAUCCAUUUAAUGUAGUGAUGUUACGC [theeternabot_exclusion_KL_Theo_A_13] | 398 | 440 | 477 | 412 | 338
16 | CUGACCAACAGCGAUACCAGUGUGGAGUGAUGUUCCCUGGUCCGGGCUGAUGUUCCCUUGCGCCCUUGGCAGCGCAGAAGCAGGU [Exclusion Theophylline B GF 13] | 433 | 295 | 359 | 349 | 338
17 | AAUACCUGAGUGAUGUUCAGGGAAUCAGAAGGAGCGUCAAUUAUGACAGGUAGGUCGCUGAAGACAUGUGUGUAUACACAUGUCC [#04 K4 Arginine A Same State] | 259 | 198 | 234 | 275 | 200
18 | UAAGUCUUAUCGGCCGCCACUCAUUACACGAAGUGAUGUUUCGGGUUUUAGACAAAUAAUUUUUGGAGGACCGGGAUACGAGAAA [theeternabot_sameState_KL_Trp_B_49] | 162 | 113 | 139 | 148 | 114
19 | GAGAUAGAGGCGGCCGCCACUAGUGAUGUUAGUGAUGUUAGAAAGAGAAUAGAACAGGGAUUUGAUAGGACCGGGCCAGAUGGAG [wwemullin] | 57.6 | 51.3 | 48.9 | 48.7 | 63
20 | GGCGGCCGCGCGAAAGCGCGGCCGGCCGAUACCAGCGCGACGGCGCGCCCUUGGCAGCGGCGCCGAGUGAUGUUCGGCCUGCCGU [#2 Same State - Theophylline A Attempt #13 (HarryS)] | 126 | 122 | 117 | 145 | 116
21 | CCUAGUGAUGUUAGGUCGUGCUCCUAUGAUACCAGCGUAGUCACUCGCCCUUGGCAGCAUUCCUUAUAAGGCGGUCGGGCGCGGU [theeternabot_sameState_KL_Theo_A_34] | 218 | 104 | 193 | 158 | 154

Row | Sequence | apparent KD of K4 kissing-loop reporter (input ligand: FMN 200 uM) [nM] | apparent KD of K4 kissing-loop reporter (input ligand: arginine 13.2 mM) [nM] | apparent KD of K4 kissing-loop reporter (input ligand: none) [nM] | apparent KD of K4 kissing-loop reporter [1] [nM] | apparent KD of K4 kissing-loop reporter [2] [nM]
22 | CAUGGAGUGAUGCUCCAUGGUCGGGCUUGGCAGGAUAUGGGAUCUUCCAGAAGGGCCGAUCCCGGCGAGUGAUGUUCGCUGGUCU [Exclusion FMN A GF 28] | 167 | 332 | 316 | 433 | 271
23 | AACUCUCAGACACUUGAGUGAUGUUCGGGCCGAGGACCGGUACGGCCGCCACUCGGGUCUGAGAGAGGUUAUCAAAGAUAGCCAA [Omei KL Tryp A SS A v9] | 303 | 87.3 | 153 | 141 | 164
24 | AUGUAUGAAUUAGGAUAUCGUGAUCCAUGCAUAUAUAUGAUAAAUGGAUAUGUCGUAGUGAUGUUACGAGAAGGAGUGUGGAGUA [KL-XFMN-B1] | 62.6 | 71.5 | 64.3 | 93 | 45
25 | AUCUUGUUUGGAGGAUAUUCUUUAUUCGACAUAACCUUCUAUAAGGUGCAGUGAUGUUGCAAUAUAGGAGAAGGUCGAGUGAGAU [Exclusion FMN B GF 17] | 239 | 174 | 188 | 166 | 188
26 | UUGUUUGGUUGAGAGGUUGGGCGAGAUGAUACCAGUAUAUAAGAAUACCCUUGGCAGCAUAAGAAAGAUAUAGUGAUGUUGUAUA [SSTheophA.M] | 520 | 379 | 645 | 672 | 457
27 | CGACUAGUCUUGCAACCCUAGUCGAUAGACUAGGAUAUCAGGAAACUGAGAAGGAGUCUACUUGCAGUGAUGUUGCAAGAAUAAU [[F]''-[K]'-[F]'-[F1]-[F2]-[K1]-[K2]_Design6] | 163 | 176 | 170 | 168 | 156
28 | UUCUAAAUGUCUGAUACCAGAGAAAAUAUAUGUAGUGAUGUUAUAUACAAAUUUAAUAAGCUCCCUUGGCAGCAGUAUGAAUUUU [AstrosExc-TheB#13] | 705 | 744 | 949 | 755 | 595
29 | GGGAGUUAUUACGGCAGGGUCGAUACGGAUACCAGUAGGCGGCUCUACCCUUGGCAGCCGUAACAUGGUAGUGAUGUUAUCAGUC [theeternabot_exclusion_KL_Theo_A_24] | 527 | 420 | 518 | 468 | 405
30 | ACUGAGCAUGCGGCCGCCACUUCAGAACGUCGCCCAGAGGGCGACGCCUCCGCAGUGAUGUUGUGGAGGACCGGGCAUGUUCAGA [Omei KL Tryp B Exc A v5] | 419 | 360 | 355 | 451 | 420
31 | UGACAUUGCUCAGAUACCAGUCAUGAGGAUCACCCAUGGGCCAAACGUACAAUAAUAAAUGACCCUUGGCAGCUGAGCAAUGUCU [TheoBX 14] | 64.5 | 36.9 | 55.4 | 135 | 62.8
32 | GCAUGUAUGCGAGAGUGAUGUUCAUGGUUUCGAGGACCGGUACGGCCGCCACUCGCGAUCCGGCGUACAAUCGUGAAGUUAUCAU [theeternabot_sameState_KL_Trp_A_42] | 736 | 469 | 655 | 542 | 672
33 | GCCGUAGAUGGAAGGAGCGACUUCAGCGGAUAAACGUGACAAUUGGAGUGAUGUUCGCAAGGUCAGGUAGGUCGCCAUCUACGGC | 819 | 211 | 260 | 274 | 313
34 | CGGAACGCAUCGGCCGCCACUUUUAUCUGCAGUGAUGUUGCAGUAUCCGAGCAAGGCUGUUGUGAAAGGACCGGGAUGGUCCGUU [Tibeberi] | 87.5 | 96.6 | 92.7 | 97.4 | 143
35 | GUGCGGUGGAGGUUACCGCUACUCUGAGAAGGAGCGCAGAUGACUGCAGGUAGGUCGCUUAGAGCUUGCAGUGAUGUUGCAAGUU [Anquatbiat] | 199 | 147 | 159 | 132 | 177
36 | AGACCUCAGUGAUGUUGAGGUAACACUGAUACCAGCGACUUGAUUCGCCCUUGGCAGCAGUCCACCGAGGUAUCUGAUCAGGUCA [#25 K4 Theophylline A Exclusion] | 159 | 158 | 137 | 168 | 140
37 | UCCUGCAAUCUGCCACGAAAGUGGAUUGAUACCAGAGUCGAAAGACUCCCUUGGCAGCGAGUGAUGUUCGUAGCAGGUAAAUAAA [MatMod 6 - Jieux - Exclusion - Theophylline A] | 203 | 221 | 206 | 218 | 185
38 | CCUGCAGCUGUAACCGAGUGAUGCUACGGACGAGGACCGGUACGGCCGCCACUCGCCAGUGAUGUUGGUGUGGGAGGACGUAACU [KL-XTryp-A22] | 200 | 140 | 190 | 178 | 199
39 | GGGUGGCAGGCGGCCGCCACUCUGAGCACCCACUGAGUGAUGUUCGUGGCGUAAGACUGUUCGUAGAGGACCGGGUUUGUUGUUC [Same State Tryptophan B GF 23] | 203 | 143 | 214 | 306 | 205
40 | UGGAGUUGACGAAAAGUCAACUCCCGAGAAGGAGCGGACGAAAGUCCAGGUAGGUCGCUCACUACCAGUGAUGUUGGUACUUAAA | 138 | 220 | 181 | 213 | 138
41 | UGAUAGGACAGAAGGAGCGGAAGUGAUGUUUCCAAAAGGAGAGGUCGACAAAGUCGACCCUUCCAGGUAGGUCGCUGUCCUAUCU [ArgBX 10 #Palindromic #SwitchBubble #StaticStem] | 95.3 | 83.5 | 79.1 | 105 | 86.7
42 | UCGCACCUGUGGGCGAGGCCUAUAAUUGUCAAGGAUAUAGAUCAUUCUAGAAGGUGACACUUCGCGAGUGAUGUUCGGGAAAUGC [theeternabot_sameState_KL_FMN_A_8] | 386 | 212 | 273 | 245 | 179
